Measured values reported in patent US20100041096.

Assays:
[1] = molecular target: His-Flag-NPM (full length, recombinant, from E. coli), P06748
[2] = molecular target: endogenous NPM of 293T cells, P06748
Sequence of endogenous NPM of 293T cells, P06748 (P06748 whole entry): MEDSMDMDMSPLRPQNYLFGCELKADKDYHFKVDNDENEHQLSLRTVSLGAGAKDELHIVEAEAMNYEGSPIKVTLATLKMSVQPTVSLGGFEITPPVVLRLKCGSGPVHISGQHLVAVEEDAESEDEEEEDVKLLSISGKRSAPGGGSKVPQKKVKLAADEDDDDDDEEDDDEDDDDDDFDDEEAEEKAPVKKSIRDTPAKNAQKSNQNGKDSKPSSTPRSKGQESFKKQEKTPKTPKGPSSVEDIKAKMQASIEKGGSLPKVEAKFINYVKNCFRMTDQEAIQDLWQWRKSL

Sequence of His-Flag-NPM (full length, recombinant, from E. coli), P06748 (P06748 whole entry): as above

| Protein | in vitro ubiquitination with purified recombinant proteins (anti-Flag immunoblot) [1] | LC/MS/MS identification of proteins conjugated with Flag-ubiquitin in the reaction of the ligase immunocomplex [2] |
| --- | --- | --- |
| His-BRCA1 (1-304) / His-BARD1 (14-189) (protein) chain 1: MDLSALRVEEVQNVINAMQKILECPICLELIKEPVSTKCDHIFCKFCMLKLLNQKKGPSQCPLCKNDITKRSLQESTRFSQLVEELLKIICAFQLDTGLEYANSYNFAKKENNSPEHLKDEVSIIQSMGYRNRAKRLLQSEPENPSLQETSLSVQLSNLGTVRTLRTKQRIQPQKTSVYIELGSDSSEDTVNKATYCSVGDQELLQITPQGTRDEISLDSAKKAACEFSETDVTNTEHHQPSNNDLNTTEKRAAERHPEKYQGSSVSNLHVEPCGTNTHASSLQHENSSLLLTKDRMNVEKAEF chain 2: IRSGNEPRSAPAMEPDGRGAWAHSRAALDRLEKLLRCSRCTNILREPVCLGGCEHIFCSNCVSDCIGTGCPVCYTPAWIQDLKINRQLDSMIQLCSKLRNLLHDNELSDLKEDKPRKSLFNDAGNKKNSIKMWFSPRSKKVRYVVSKASVQTQPAIKKDASAQQDSYEFVSPSPPA | two slowly floating products were detected in the gel (lane 7) | – |
| Myc-BRCA1(1-772)/BARD1 complex (protein) chain 1: MDLSALRVEEVQNVINAMQKILECPICLELIKEPVSTKCDHIFCKFCMLKLLNQKKGPSQCPLCKNDITKRSLQESTRFSQLVEELLKIICAFQLDTGLEYANSYNFAKKENNSPEHLKDEVSIIQSMGYRNRAKRLLQSEPENPSLQETSLSVQLSNLGTVRTLRTKQRIQPQKTSVYIELGSDSSEDTVNKATYCSVGDQELLQITPQGTRDEISLDSAKKAACEFSETDVTNTEHHQPSNNDLNTTEKRAAERHPEKYQGSSVSNLHVEPCGTNTHASSLQHENSSLLLTKDRMNVEKAEFCNKSKQPGLARSQHNRWAGSKETCNDRRTPSTEKKVDLNADPLCERKEWNKQKLPCSENPRDTEDVPWITLNSSIQKVNEWFSRSDELLGSDDSHDGESESNAKVADVLDVLNEVDEYSGSSEKIDLLASDPHEALICKSERVHSKSVESNIEDKIFGKTYRKKASLPNLSHVTENLIIGAFVTEPQIIQERPLTNKLKRKRRPTSGLHPEDFIKKADLAVQKTPEMINQGTNQTEQNGQVMNITNSGHENKTKGDSIQNEKNPNPIESLEKESAFKTKAEPISSSISNMELELNIHNSKAPKKNRLRRKSSTRHIHALELVVSRNLSPPNCTELQIDSCSSSEEIKKKKYNQMPVRHSRNLQLMEGKEPATGAKKSNKPNEQTSKRHDSDTFPELKLTNAPGSFTKCSNTSELKEFVNPSLPREEKEEKLETVKVSNNAEDPKDLMLSGERVLQTERSVESSSISLV chain 2: MPDNRQPRNRQPRIRSGNEPRSAPAMEPDGRGAWAHSRAALDRLEKLLRCSRCTNILREPVCLGGCEHIFCSNCVSDCIGTGCPVCYTPAWIQDLKINRQLDSMIQLCSKLRNLLHDNELSDLKEDKPRKSLFNDAGNKKNSIKMWFSPRSKKVRYVVSKASVQTQPAIKKDASAQQDSYEFVSPSPPADVSERAKKASARSGKKQKKKTLAEINQKWNLEAEKEDGEFDSKEESKQKLVSFCSQPSVISSPQINGEIDLLASGSLTESECFGSLTEVSLPLAEQIESPDTKSRNEVVTPEKVCKNYLTSKKSLPLENNGKRGHHNRLSSPISKRCRTSILSTSGDFVKQTVPSENIPLPECSSPPSCKRKVGGTSGRKNSNMSDEFISLSPGTPPSTLSSSSYRRVMSSPSAMKLLPNMAVKRNHRGETLLHIASIKGDIPSVEYLLQNGSDPNVKDHAGWTPLHEACNHGHLKVVELLLQHKALVNTTGYQNDSPLHDAAKNGHVDIVKLLLSYGASRNAVNIFGLRPVDYTDDESMKSLLLLPEKNESSSASHCSVMNTGQRRDGPLVLIGSGLSSEQQKMLSELAVILKAKKYTEFDSTVTHVVVPGDAVQSTLKCMLGILNGCWILKFEWVKACLRRKVCEQEEKYEIPEGPRRSRLNREQLLPKLFDGCYFYLWGTFKHHPKDNLIKLVTAGGGQILSRKPKPDSDVTQTINTVAYHARPDSDQRFCTQYIIYEDLCNYHPERVRQGKVWKAPSSWFIDCVMSFELLPLDS | – | Of the proteins identified, nucleophosmin/B23 (NPM) exhibited the highest possibility with 17 peptides displaying a probability based Mowse score of 126 |
